Data published in patent US20230183661A1, “BICOMPATIBLE PEPTIDEBIOCOMPATIBLE PEPTIDES FOR INHIBITION OF AGGREGATION OF B-AMYLOID PROTEIN” (Catholic University Industry Academic Cooperation Foundation, priority 2017, published 2023).
“Also recorded” adds a separate entry of the source.

Experiments:
[1] = test system: nerve cells (N2a); assay: Cytotoxicity by nuclear morphology through IFA; assay type: cell-based, mouse; conditions: overexpressed in N2a, FIG. 5
Description: (§1) Twenty-four hours after the transfection, N2a cells were incubated in a 4% paraformaldehyde fixation solution for 15 minutes. The cells were washed with PBS three times, and incubated in a 50 mM NH4Cl/PBS quenching solution for 10 minutes.
(§2) Subsequently, the cells were washed with PBS three times, and incubated in a 0.1% Triton X-100/PBS solution for 5 minutes. The cells were then treated and incubated with 2% FBS/blocking buffer at room temperature for 1 hour. The cells were then treated and incubated with FLAG antibodies diluted 1/100 at room temperature for 2 hours, washed with PBS three times, and then treated and incubated with a goat anti-mouse Alexa Fluor®-red 594 dye.
(§3) The sample was washed with PBS three times, and mounted on a glass slide using a FluoroGuard Antifade reagent (Bio-Rad Laboratories, Inc.). A fluorescent image was obtained using a confocal laser scanning microscope (Zeiss LSM 510 Meta, Carl Zeiss AG), and processed using Adobe® Photoshop®, and a fluorescence signal intensity was measured using a ZEN 2009 Light Edition software program.
To confirm cytotoxicity of the peptide (NABi) of the present invention, the peptide of the present invention was overexpressed in nerve cells (N2a), and a nuclear morphology was observed through IFA. […]

[2] = target: T1, Aβ (Homo sapiens, UniProt P05067); assay: Co-IP assay of SOD1 truncated peptides co-overexpressed with Aβ in nerve cells (N2a); assay type: binding; parameters: Aβ, and generally a peptide consisting of 36 to 43 amino acids; expressed in transfected cells; host or cells: N2a (murine neuroblastoma); conditions: for Acting with β-amyloid / Binding strength with β-amyloid: Co-IP; for Acting with β-amyloid: peptide and Aβ overexpressed in N2a; for Binding strength with β-amyloid: relative score without scale; for Binding to Aβ: FIG. 3, Co-IP; for Binding strength to Aβ: FIG. 3
Description: The transfected HEK293T, H4 and N2a cells were lysed in a NETN buffer and incubated on ice for 1 hour. This solution includes 100 mM of NaCl, 1 mM of EDTA, 20 mM of Tris-HCl (pH 8.0), 0.5% (v/v) NP-40 and protease inhibitors. Among the protease inhibitors, aprotinin and leupeptin have a concentration of 2 μg/ml, and PMSF has a concentration of 0.1 mM.
1 mg of a protein extract and 1 μg of a primary antibody were mixed and cultured at 4° C. for 12 hours. The mixture was mixed with Protein G Sepharose 4 Fast Flow (GE Healthcare), and cultured at 4° C. for 1 hour, yielding a binding immune complex through centrifugation. A sample buffer was added to the precipitated Sepharose and boiled, and the buffer includes 44 mM Tris-HCl (pH 6.8), 2% SDS, 144 mM β-mercaptoethanol, 10% (v/v) glycerol, and 0.004% (v/v) bromophenol blue.
The immunoprecipitated sample was subjected to 12% SDS-polyacrylamide gel electrophoresis (SDS-PAGE) to transfer proteins to a membrane, and then immunoblotting with a FLAG antibody, a SOD1 antibody and a GFP antibody.
To identify a β-strand exposed at a protein surface and inhibiting Aβ protein aggregate formation through interactions with Aβ, all types of truncated fragments of SOD1 consisting of eight β-strands (β1 to β8) were systemically designed and constructed (FIG. 2). FIG. 2 schematically illustrates SOD1 and the β1-to-β8 structure of SOD1, and the sequences of Peptides 1 to 6.
To determine a determinant binding to Aβ, various peptides from which a specific β-strand was removed were constructed. Peptide 2 was prepared by removing a β-turn linked to the β2 strand in Peptide 1. Peptides 1 to 6 and Aβ were overexpressed in nerve cells (N2a), and then a Co-IP assay was performed.

[3] = test system: nerve cells (H4 cells); assay: Neural cell death through PI staining; assay type: cell-based; conditions: peptide and Aβ overexpressed in H4 cells, FIG. 10
Excerpt: Approximately 40 to 50% of the H4 cells were positive for a neuron marker (neuron-specific enolase; NSE). Since the H4 cells were sensitive to an Aβ aggregate, and neural cell death resulted from the Aβ aggregate, they were used in neural cell death analysis.
For the control, Aβ was overexpressed in nerve cells (H4 cells).

[4] = test system: nerve cells (N2a); assay: Cytotoxicity through IB of neural cell death-associated proteins; assay type: cell-based, mouse; conditions: peptide overexpressed in N2a, FIG. 6
Description: (§4) Cells were lysed in an RIPA buffer and incubated at 4° C. for 30 minutes. The RIPA buffer includes 2 μg/mL of a composition including 0.15 M NaCl, 0.5% (v/v) sodium-deoxycholate, 0.1% (v/v) SDS, 0.05 M Tris-HCl (pH 8.0), 1% (v/v) NP-40, aprotinin and leupeptin, 1 mM PMSF and a phosphatase inhibitor.
(§5) The phosphatase inhibitor included 1 mM Na3VO4 and 1 mM NaF. A protein concentration was measured by a Bradford assay (Bio-Rad Laboratories). The sample was separated in a 12% or 15% SDS-polyacrylamide gel.
(§6) The cells were lysed in a lysis buffer (Catalog No. 9803, Cell Signaling Technology), and the sample was separated in a 13% blue gel according to the manufacturer's protocol (MitoSciences Inc.).
(§7) Proteins were transferred to Protran® nitrocellulose membranes (Sigma-Aldrich Co. LLC), and then the membranes were incubated in a 5% non-fat dried milk/TBST solution at room temperature for 1 hour. […]
(§8) The membranes were incubated with a primary antibody at room temperature for 1 hour, and incubated again with a secondary antibody for 1 hour. The antigen-antibody complex was detected using an enhanced chemiluminescence kit (Santa Cruz Biotechnology, Inc.). […]
For the control, normal nerve cells (N2a) were treated with STS to induce apoptotic cell death (apoptosis positive control), and then the expression and activity of a neural cell death-associated protein were evaluated.

[5] = test system: nerve cells (H4 cells); assay: Neural cell death through nuclear morphology; assay type: cell-based; conditions: peptide and Aβ overexpressed in H4 cells, versus Aβ-only control, FIG. 11
Excerpt: For the control, Aβ was overexpressed in the nerve cells (H4 cells).

[6] = target: T2, Aβ protein aggregate (Homo sapiens, UniProt P05067); assay: Aβ aggregation inhibition in nerve cells through IFA; assay type: cell-based; conditions: peptide and Aβ expressed, FIG. 7; Aβ-only control about 50% cells with aggregates
T2 construct: Aβ, and generally a peptide consisting of 36 to 43 amino acids; expressed in transfected cells; host or cells: N2a (murine neuroblastoma)
Description: as §1, §2, §3
To confirm the inhibition of Aβ aggregation by the peptide (NABi) of the present invention, the peptide of the present invention and Aβ were expressed in nerve cells, and then an Aβ protein aggregate was quantitatively analyzed through IFA. […]

[7] = test system: nerve cells (H4 cells); assay: Neural cell death through AnnexinV staining at different peptide expression levels; assay type: cell-based; conditions: all expression levels of the peptide, H4 cells with Aβ, FIG. 12
Excerpt: An expression level of the peptide of the present invention was differentially adjusted.

[8] = test system: nerve cells (N2a); assay: Self-aggregate formation of peptide overexpressed in nerve cells (N2a), immunofluorescence; assay type: cell-based, mouse
Description: as §1, §2, §3
To identify whether a self-aggregate of the peptide (NABi) of the present invention was formed, the peptide of the present invention was overexpressed in nerve cells (N2a), and then measured by an immunofluorescence method.

[9] = target: T1, Aβ; assay: Aβ aggregate formation under aggregate formation conditions, measured through IB; assay type: biochemical; conditions: FIG. 8
Description: 9. Formation of β-Amyloid Aggregate A monomer recombinant Aβ42 (Catalog No. 03-111, Invitrogen™ Co.) peptide was added to 1,1,1,3,3,3-hexafluoro-2-propanol (HFIP, Sigma-Aldrich Co. LLC) and stored in a −80° C. freezer, and the HFIP was evaporated and removed immediately before use. For the Aβ aggregate formation, 20 μM of Aβ peptides were dissolved in a 0.1 M HEPES/TBS buffer or 0.01 M HCl/TBS buffer and incubated at 37° C. for 14 days. The TBS buffer included 50 mM Tris-HCl and 150 mM NaCl.
To confirm the inhibition of Aβ aggregation by the peptide (NABi) of the present invention, the peptide (NABi) of the present invention and Aβ were cultured under i) a 0.1 M HEPES/TBS (pH 7.4) condition or ii) a 0.01 M HCl/TBS condition, and then the degree of Aβ aggregate formation was measured through IB.
Under an Aβ aggregate formation condition, for example, i) a 0.1 M HEPES/TBS (pH 7.4) condition or ii) a 0.01 M HCl/TBS condition, the control was subjected to IB in order to measure a degree of Aβ aggregate formation.

[10] = test system: nerve cells (H4 cells); assay: Neural cell death-associated proteins through IB at different peptide expression levels; assay type: cell-based; conditions: peptide and Aβ expressed in H4 cells, FIG. 13 lanes 6 to 8
Description: as §4, §5, §6, §7, §8
For the control, after Aβ was expressed in nerve cells (H4 cells), the expression and activity of a neural cell death-associated protein were measured through IB.

[11] = target: T1, Aβ; assay: FRAP assay of Aβ mobility in nerve cells (N2a); assay type: cell-based; parameters: Aβ, and generally a peptide consisting of 36 to 43 amino acids; expressed in transfected cells; host or cells: N2a (murine neuroblastoma); conditions: FIG. 9
Description: Fluorescence recovery after photobleaching (FRAP) is a technique for detecting the mobility of a fluorescence-tagged molecule in living cells. N2a cells were cultured in a 35 mm cell culture dish at a density of 5×10^4 cells/dish, and after 12 hours, a target plasmid was transfected into the cells.
Thirty six hours after the transfection, whether an aggregate was formed was analyzed by a laser confocal microscope. A specific area (white box part) was photobleached 15 times using 594 nm laser, and then fluorescence recovery in the photobleached part was measured at an interval of 3 seconds.
To confirm the inhibition of Aβ aggregation by the peptide (NABi) of the present invention, the peptide of the present invention and Aβ were overexpressed in nerve cells (N2a), a predetermined region was repeatedly exposed to a high intensity laser beam through a FRAP assay. Afterward, an Aβ protein was removed from the laser beam-exposed region, and then fluorescence recovery according to migration of peripheral Aβ proteins was measured in real time.
For the control, after Aβ was overexpressed in nerve cells (N2a), fluorescence recovery according to migration of peripheral Aβ proteins was measured in real time through a FRAP assay.

Substance: G93A: SOD1 mutant in which the 93th amino acid glycine was changed to alanine; aggregation and apoptosis comparator [Peptide G93A, reference compound]
- Cells with condensed and fragmented nuclei [1]: approximately 50%

Substance: Peptide 3: truncated fragment of SOD1 consisting of β-strands β4 to β6, 75 aa
- Acting with β-amyloid [2]: Not acting
- Binding strength with β-amyloid [2]: 0
- Binding to Aβ [2]: did not bind to Aβ

Substance: Peptide 4: truncated fragment of SOD1, β1-to-β3 sequence, 39 aa (SEQ ID NO: 2) (ATKAVCVLKGDGPVQGIINFEQKESNGPVKVWGSIKGLT; peptide 2)
- Binding strength with β-amyloid [2]: 1
- Binding strength to Aβ [2]: bound to Aβ at a similar strength

Substance: Peptide 5: Natural Amyloid β Binder and Amyloid β aggregation inhibitor; β1-to-β5 strand sequence of SOD1, 90 aa (SEQ ID NO: 3 or 4)
- Reduction of the number of PI-stained apoptotic cells compared to the control [3]: approximately ⅓
- Truncated forms of PARP1, Lamin A/C [4]: not detected either
- Active caspase-3, active caspase-8, active caspase-9 and γ-H2AX ([4]; STS as apoptosis positive control): not detected
- Binding strength with β-amyloid [2]: 1
- Binding strength to Aβ [2]: bound to Aβ at a similar strength; also recorded: strongly bound to Aβ
- Binding to Aβ [2]: bound to Aβ
- Morphological changes in nuclei (chromosomal condensation and fragmentation) [5]: less morphological changes in nuclei
- Nerve cells in which no Aβ protein aggregate was observed [6]: ≥ 80%
- Neural cell death by AnnexinV staining [7]: neural cell death was inhibited
- Self-aggregate formation [8]: did not form a self-aggregate
- Nuclear morphology ([1]; compared with normal N2a control): normal nuclear morphology
- Reduction of Aβ aggregates compared to the control ([9]; i) 0.1 M HEPES/TBS (pH 7.4)): 1/10
- Reduction of Aβ aggregates compared to the control ([9]; ii) 0.01 M HCl/TBS): ⅓
- Detection of truncated caspase-3, truncated PARP and truncated Lamin A/C [10]: greatly reduced
- Recovery of fluorescence removed by photobleaching ([11]; within 20 seconds): 50%
- Recovery of fluorescence removed by photobleaching ([11]; within 90 seconds): 75%

Substance: Peptide 6: truncated fragment of SOD1 consisting of β-strands β5 to β8, 74 aa
- Acting with β-amyloid [2]: Not acting
- Binding strength with β-amyloid [2]: 0
- Binding to Aβ [2]: did not bind to Aβ
